Assay results: article PMC6306009, “Combined use of cutinase and high-resolution mass-spectrometry to query the molecular architecture of cutin” (Plant Methods, 2018)

Key:
F. solani cutinase = target: T1, F. solani cutinase (Fusarium vanettenii, UniProt P00590); experiment: p-nitrophenol release, absorbance at […] nm; format: biochemical; conditions: 20 mM Tris-HCl pH 8, 10 mM NaCl, 10% acetonitrile (standard assay); temperature not given
T1 construct: gene CUT1; codon-optimised ORF, His-tagged, pET30f, E. coli BL21(DE3), sarkosyl extraction, Ni-NTA purified; 24-30 kDa on SDS-PAGE

[1] = test system: CCCC(=O)Oc1ccc([N+](=O)[O-])cc1; experiment: purified protein; conditions: 20 mM Tris-HCl pH 8, 10 mM NaCl, 10% acetonitrile (standard assay), temperature not given

T1 sequence (P00590 32-230): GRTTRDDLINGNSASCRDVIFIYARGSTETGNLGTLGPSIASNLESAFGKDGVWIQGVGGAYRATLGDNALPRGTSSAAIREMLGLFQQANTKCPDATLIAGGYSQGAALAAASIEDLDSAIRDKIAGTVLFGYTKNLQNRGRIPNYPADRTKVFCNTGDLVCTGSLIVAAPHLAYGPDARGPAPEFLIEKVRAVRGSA

| Compound | Km (F. solani cutinase) | Km [1] | kcat [1] |
| --- | --- | --- | --- |
| CCCC(=O)Oc1ccc([N+](=O)[O-])cc1 [p-nitrophenyl butyrate] | 1260 ± 60 µM |  |  |
| A. brassicicola cutinase (Alternaria brassicicola) |  | 870 ± 50 µM | 12 ± 0.80 s⁻¹ |
